B1: HDV Ribozyme (parent)
chain: GGCCGGCAUGGUCCCAGCCUCCUCGCUGGCGCCGGCUGGGCAACAUUCCGAGGGGACCGUCCCCUCGGUAAUGGCGAAUGGGACCCA

The variants in this data set derive from B1. The data set can be described thus: self-cleavage, relative activity (ratio to wild type); higher = more cleavage; co-transcriptional.
For C62U A71C, the self-cleavage turned out to be 0.812. With C62U A71G, the self-cleavage came to 0.997. Regarding C62U A83G, the self-cleavage came to 0.818.

For the variant C61A G81U, the self-cleavage is 0.347.

With C61A G81A, the self-cleavage came to 0.354.

Turning to C61G C62G, the self-cleavage turned out to be 1.05.

On to U60A G81A, for which the self-cleavage was found to be 0.514.

As for C61U A70G, the self-cleavage was 1.01. With C61U A70C the figure was 0.892. As for C61G C86A, the self-cleavage worked out at 1.03.

Regarding C61G A87U, the self-cleavage came out at 0.943. With C61G A87G the figure was 0.994. The figure for C61A A87G is 1; for C61A A87U it is 0.978. With C61A A87C the figure was 1.07; with C61U G82C, 0.281. For the variant C62A C84G, the self-cleavage turned out to be 0.764.

As to C62A C84A, the self-cleavage came out at 0.862. With U60C G76U the figure was 1.05; with U60C G76C, 1.16.

Turning to U60C G76A, the self-cleavage was found to be 1.05. As for C62A G76A, the self-cleavage is 1.13. Consider C62U A78G, for which the self-cleavage turned out to be 0.475.

As for U60G C84A, the self-cleavage turned out to be 0.752.

For the variant U60G C84G, the self-cleavage came out at 0.902. With U60G C84U the figure was 0.798; with U60G U72G, 0.646; with U60A G80U, 0.299. As to C62A G73A, the self-cleavage is 0.545. On to C62A G73C, for which the self-cleavage amounted to 0.465.

Take U60A C86G: the self-cleavage was 0.851.

With U60A C84U, the self-cleavage was 0.793. The figure for U60A C84A is 0.911; for U60C G67A it is 0.776. The figure for C61G C63U is 1.02; for C61G C63A it is 0.718; for C61U C66A it is 0.722. With C62A C75A the figure was 0.0314. For C61A C86G, the self-cleavage stood at 0.908.

As to C61A C66G, the self-cleavage was 0.942. As for C61A C66U, the self-cleavage was 1.1.

For C61A C66A, the self-cleavage came out at 0.992.

As for C61G G74U, the self-cleavage was 0.466.

Consider U60A G82C, for which the self-cleavage was determined as 0.148. In the case of U60A G82U, the self-cleavage is 0.35. C62A G82A: the self-cleavage stood at 0.35. With C62A C66A the figure was 0.32; with C62A C66G, 0.623; with C61G U69A, 0.789. The figure for C61G U69G is 0.831; for U60C G68U it is 1.2. With U60C G68A the figure was 0.81; with U60C G68C, 0.755.

For the variant C62G U65G, the self-cleavage turned out to be 0.32.

C61U A83G: the self-cleavage was 0.692. The figure for U60A G76A is 1. With C62A A70U the figure was 0.955. The figure for C62G A70G is 0.578. Take C62G A70C: the self-cleavage came to 0.554. As for C61U U69A, the self-cleavage worked out at 0.914. For the variant C61U U69C, the self-cleavage came out at 0.972.

Consider C62A U69A, for which the self-cleavage came out at 0.997. With C62A U69C the figure was 0.882.

With C62A U69G, the self-cleavage worked out at 1.03. With C61G C64G the figure was 0.527; with C61G C64A, 0.582; with U60C G81C, 0.291.

U60A C75G: the self-cleavage came to 0.0978. With U60C U72G the figure was 0.767; with U60C U72A, 0.755. With C62A G80A the figure was 0.282; with C62A G80C, 0.0594. With U60C A83U the figure was 0.653. Consider C61A G67C, for which the self-cleavage came out at 0.831. The figure for C61A G67A is 0.9; for C61A G67U it is 1.12. As to C61G G80A, the self-cleavage came to 0.434. Regarding U60A A70U, the self-cleavage came to 1.06. As for C61A G73A, the self-cleavage amounted to 0.641.

In the case of C61A G73U, the self-cleavage turned out to be 0.353.

On to C61A C63U, for which the self-cleavage was determined as 1.07.

For C61A C63A, the self-cleavage was determined as 0.689.

Take C61A C63G: the self-cleavage amounted to 0.499.

With C61U U79A, the self-cleavage is 0.88. The figure for U60C C84G is 0.856; for U60A C85A it is 0.831; for G59U U72C it is 0.599.

Take G59U U72G: the self-cleavage amounted to 0.776.

C62A U65G: the self-cleavage came to 0.359. Take C62A U72A: the self-cleavage was found to be 0.54. The figure for C62A U72G is 0.617; for C62A U72C it is 0.38; for C62G A87G it is 0.716. The figure for U60C C66A is 1.14; for C62G G73U it is 0.193; for U60G C75A it is 0.229. For the variant U60G C75G, the self-cleavage came out at 0.119. Turning to U60G C75U, the self-cleavage worked out at 0.231.

For C62U C85G, the self-cleavage stood at 0.892. The figure for C62U C85A is 0.847; for C62U C64U it is 0.796; for C62U C64A it is 0.845.

Turning to C62U C64G, the self-cleavage stood at 0.482. On to C62G U69C, for which the self-cleavage stood at 0.534. For the variant C61U C84U, the self-cleavage was 0.636.

With C62G G68C, the self-cleavage was determined as 0.196. Consider C62U A77U, for which the self-cleavage came out at 0.429. In the case of C61A G82U, the self-cleavage was found to be 0.507. For the variant C61A C62A, the self-cleavage is 0.904. The figure for C61U A78C is 0.182; for U60C G74U it is 0.348. The figure for U60C G74A is 0.591. With C61A C85G the figure was 0.988.

Take C61G A83C: the self-cleavage was 0.364. The figure for C61G A83U is 0.151; for C61G G81U it is 0.358. As for C61U A77U, the self-cleavage was 0.475. The figure for C61U G73U is 0.383.

On to C61U G73C, for which the self-cleavage is 0.629. The figure for C62G C63A is 0.639; for C62G C63U it is 0.604; for C62G C63G it is 0.706. With U60C A78C, the self-cleavage was 0.19. With U60C A78U the figure was 0.229; with U60A C62U, 1.08; with U60A C62A, 0.886. For G59U U79G, the self-cleavage turned out to be 0.692.

For the variant G59U U79C, the self-cleavage amounted to 0.563. On to C62U C84A, for which the self-cleavage was determined as 1.14. For the variant C62U C84G, the self-cleavage was 0.692. With C62U C84U the figure was 0.819; with C61A A71C, 1.12; with C61U C64A, 0.89. Regarding U60A C63A, the self-cleavage came out at 0.849. Consider U60A C63U, for which the self-cleavage turned out to be 0.972. The figure for G59U U69G is 1.14; for C62G C75G it is 0.26; for C62G C75A it is 0.17. C61G G82C: the self-cleavage was 0.233. With C61G G82A the figure was 0.284; with C61A A83U, 0.47. With U60A U79A the figure was 0.923. With U60A U79C the figure was 0.515; with U60A A77C, 0.305. As to C61A U79A, the self-cleavage turned out to be 0.642. The figure for C61A U79G is 1.14.

C62A A78G: the self-cleavage was 0.78. With C62A A78C, the self-cleavage was determined as 0.101. C62A A78U: the self-cleavage stood at 0.185. The figure for U60C C75G is 0.128; for U60C C75A it is 0.237. With U60G A70C the figure was 0.95.

Turning to U60G A70G, the self-cleavage is 0.911. Turning to C62A C64U, the self-cleavage was 0.892. For U60G A83G, the self-cleavage turned out to be 0.712. As to U60G A83U, the self-cleavage was 0.415. With C61U C86U the figure was 1.03; with C61U C86G, 0.847. As to C62G G74U, the self-cleavage is 0.372. For C62G G74A, the self-cleavage stood at 0.402. With C62G G74C the figure was 0.172; with C61U G74U, 0.554. Regarding C61G G73C, the self-cleavage is 0.264.

Regarding C61G G73U, the self-cleavage came out at 0.327. For the variant U60G G81A, the self-cleavage worked out at 0.269.

As to U60G G81C, the self-cleavage was found to be 0.268. With U60G U65G, the self-cleavage amounted to 0.883.
